# According to the DeepSol protein solubility set:
# Assay: soluble on expression in E. coli; label from the status in PepcDB or PDB records
row,Sequence,soluble on expression in E. coli
1,MGSDKIHHHHHHMSLHSDILVVGAGPAGLSFAAELAGSGLKVTLIERSPLTVLQNPPYDGREIALTHFSREIMQRLGMWDKIPENEIYPLRDAKVLNGRSDYQLHFPQPTEARGEPADCLGYLISNHNIRRAAYEVVSQLDNVSILTDTAVKEVKTSDNEAQVFLENGDILTARLLLAADSRFSQTRRQLGISSDMHDYSRTMFVCRMKHTLSNQHTAYECFHYGRTIALLPLEKRLTNTVITVDTDKINSVQNLSPEELAASVKEQLKGRLGDMELVSSIHHYPLVGMIAKRFYGKRSALIGDAAVGMHPVTAHGFNLGLSSADILAKLILEAEQRGQDIGAASLLEKYSSKHMLHAHPLYHGTNMMLKLFTNETAPAKLLRGLVLRAGNNFPPLKKLITKQLTG,not soluble
2,MAHHHHHHSLCPCPHSQAQGETDGEAEWHNAALDFTHAMSYGDYLKLDKVLDAQFPLSPDHNEMLFIIQHQTSELWMKLMLHELRAAREHVKSGKLGPALKMLARVSRIFDQLVHAWAVLATMTPTEYNTIRPYLGQSSGFQSYQYREIEFILGNKNATLLKPHAHRAELLAALEQALHTPSLYDEAIRLMAAQGLPVSQERLARDAAAGTCYEASVEAAWRQVYQAPERYWDLYQLAEKLIDLEDSFRQWRFRHVTTVERIIGFKPGTGGTEGVGYLRSMLDTILFPELWRLRSNEG,soluble
3,AIAEGEYRLTRSYAVVDITAQVDDSAILEPFACVMARARIGPRTRVGAHSVVGVGVSVGADCCIYHHVTLLNCDIGDRCVIHSGVAIGQDGFGFEVDQQTGKVRKKPQELSVRIGNEVEIGANTCIDRGSWRDTLIEDAVKIDNLVQIGHNVQVGANTFICGQAGVAGSTKIGRYCRFGGRSGAVDHLEIGDHVDVAANSVLTRNAPGHAVYAGFPAMPMREWRHQQVTLRRLSRAGKRQVDVSADDPEFPK,soluble
4,MGSDKIHHHHHHMYLEAFTSHFNSIADSRQSAKVTYPLHDVLFVTLCGVIAGAEGWSEIHDYAAGHHTWFKEKGILTEGVPVDDTIARIISRIEPEQFRLCFANWMRAVHEMSDGHLIAIDGKTLRASYNREDRRSTIHMVNAFACANKVVLGQVKTANKSNEITAIPALLQLLDIEGALVSIDAMGCQTEIARQIVEQGGDYLLAVKVNQSSLHEAVVSAFSEARSNPLDGLVIEKNRGRIEARAYYVIPANQLQDNFPKWMKLNTLGMCLSYRHTKGKEAELTYRYYISSATLDEQLLANSVRGHWGIENSLHWVLDVSMKEDSCQIYQHHGAENWAMLRHISLNMLRAEPSKGSIPAKQKRAWMKPEYLESVLLAGLQLDEF,not soluble
5,MAHHHHHHMKDGDWERRNRLKVYEGIYHVFIRDFKRGSELLLDSISTFASSELMDFNEFILITVVASLPVLSRSELKQQILDSPEVRSANIKDVFHLITVIYNCRYKEVFSALDTVCQHLRGIVYLSQHVNYFFREVRVLVFTQFLDSYSSVTLNSMSAAFGIPPPVLDSMLGTLISNERIACKMDRVSDSITTYRGDTTNFDYHRIVKNGDLLLNRIQKLSRLAEM,not soluble
6,MTLYIIANPHAGNKNASTIVGKIQELYHTEDISVFYTEQKDDEKKQVINILRSFKESDHLMIIGGDGTLSKVMTYLPQHIPCTYYPVGSGNDFARALKIPNLKETLTAIQTERLKEINCFIYDKGLILNSLDLGFAAYVVWKASNSKIKNILNRYRLGKITYIVIAIKSLLHSSKVQVLVEGETGQQIKLNDLYFFALANNTYFGGGITIWPKASALTAELDMVYAKGHTFLKRLSILLSLVFKRHTTSKSIKHQTFKAMTVYFPKNSLIEIDGEIVELDQISLKCQKRYLYM,not soluble
7,MRKQFLIAHRGYSTIAPENTHLAFAAAQLFGFDGLWMEVQLTKDKQIVVTNLDNYKVGNKTHKLSDINLVNLKKINLAKQFKVNVQEQTILTLKEVLMEFLTPFRFLLLFIKGEEEQQNQVLVEQLAQLLEGFELAKEKLILLSSHFSTIKYLNEKLKSFKTSFVFNSKKQLVHLTKDEITQNCRFLAPNDSFYHKNCAELQSYGLPIILWVIKGLLRYQFYENDRFVKFQIAAQLY,soluble
8,HVHVVSNEILGLTNLLKDKKIKSKVIQFEVQFPTEEVAAHLSIDQKTPVYYVVRLRIVEGEPYVLEKTYMPTHLIPGINDDVLHDSIYNHITNVLQLKIAGTHRKIRACKSDHIDQQHLGCKQDDPILEVEHVGFLDTGIPFEYSFSRHRHDKFVVTSVNIRR,not soluble
9,MATEDAVREALATVNDPEINRPITELGMVKSVEIGADGAVAVAVYLTVSGCPMRDTITQRVSDAVSRVEGVTRVDVELDVMSDEQRKELATALRGGQTEREVPFAKPGSLTRVYAVASGKGGVGKSSVTVNLAASMAADGLKVGVVDADIYGHSVPRMLGADGRPTQVENMIMPPSAHGVKVISIGMFTPGNAPVVWRGPMLHRALQQFLADVYWGDLDVLLLDLPPGTGDIAISVAQLVPNAEILVVTTPQQAAAEVAERAGAIAVQTHQKIVGVVENMSGLPCPHCGEMVDVFGTGGGQTVADGLTRTTGASVPVLGAIPIDVRLREGGDEGKPVVLSDPDSPAGAALRSIAGKLGGRQRGLSGLSLGITPKNKFLEHHHHHH,soluble
10,MGSDKIHHHHHHMDTKQLKQDIIDYAYTIGIDSIGFTTADPFDELKQKLEAYHANGYASGFEESDIALRTEPKLSLPTARSIIAIAVGYPNKLKGAPKSVRGDRRGLFARASWGQDYHTIMRKRLDMLAAFIESKVPDVEIKSMVDTGVLSDRAVAERAGLGFVGRNGFVINPKLGTWTYLGEMLVSIPFEPDDPLLDSCGDCTICVDRCPTSALVGNGQLNSQKCISFLTQTKGYMPDQYRYKIGNRLYGCDTCQQVCPKNRGINTEQDDIILEPEILKPRLVPLLRMSNKEFKQTYGHLAGAWRGKKPIQRNAILALAHFNEVDAIPELKKVATTDERPMIRATAYWAIGQILGEEARDFINANYDQEDAEVQNEMIKGLDTRRE,not soluble
11,MGSDKIHHHHHHMEERIGLIDIGSNTIRLVIFGYNKKTGLNEILNIKTPARLSQYLTKSNEMNDEGIHVLKETLSSFRKVADKFNVDALYPIATAAIRQSKNREAIIKEIKQDIHIEIQIVPEEDEAFYGYYAITHTTDIENGISVDIGGGSTEVTLFKDKQLKEAHSFPFGVVSLKRQFFGDKAHNDKTAIKNMEQFLREQFSQLDWLSNQHIALVGVGGSARNVARIHQSAHAYPIGGVHNYKMTSKDINNVYDLIRKSSRDELTNLDGLSRDRVDIILPAISVFKTLFKKIDATQFTFSRKGIREGFIMNHISKRYPDEFNKSNVRKDALRHLANEYHIEETSANRRVKLAQSLLNQIISERSLNISAMEKELFIEGSYIYYLGSFIDSDSSSPHTYYLIANSMINGFSHKDRVKLALLASFKNKSLLKFYCKETQWFSNKEIDTIQALGGIIKFANTLNISHTSFVEEVKLKAKKDDKYDLLVYYKGSPIAEEYQANRQKKHIEKILKGKVSIIFTKS,not soluble
12,MAQKISINRGLGLGMAQLGAFARMGMMINVSAMGPQDGHANGGVGEGGIEMSRKSTWRSENDEIKTRKSTAFEPDLDFDMIDFRQPSGSSQYLYGFGFDNNAFGLADGQSDEDSVFM,not soluble
13,MKVIIIGGETTAYYLARSMLSRKYGVVIINKDRELCEEFAKKLKATIIHGDGSHKEILRDAEVSKNDVVVILTPRDEVNLFIAQLVMKDFGVKRVVSLVNDPGNMEIFKKMGITTVLNLTTLITNTVEALIFPDEFSSIIPLEQGIEFLSVNVEEDSPVVGKKLKDLPLPRDSIIAAIVRGGVLVVPRGDTEILSGDKLYVIVSAEAKETVEETLLGR,soluble
14,MWGWKAVGIKIDPSVSLEQAREIIKEAGFQEYVVNPEYIIFKQTGTQLTIKGEELPIEVVIGSAESGIFLQARYDTFVLFDSGDLAKLADELVFKLSV,not soluble
